One block for each binder: values may come before it. Square brackets hold non-standard residues; d marks the D form. Ends that are not written are not given here. * marks the point of attachment. Biotin = O=C1N[C@H]2[C@H](CS[C@H]2CCCCC(=O)*)N1; Ahx = NCCCCCC(=O)O
Key:
EphB4 Fc [1] = biological target: T1, EphB4 Fc (UniProt P54761 16-539); assay: ELISA; competition with ephrin-B2 AP
T1 chain: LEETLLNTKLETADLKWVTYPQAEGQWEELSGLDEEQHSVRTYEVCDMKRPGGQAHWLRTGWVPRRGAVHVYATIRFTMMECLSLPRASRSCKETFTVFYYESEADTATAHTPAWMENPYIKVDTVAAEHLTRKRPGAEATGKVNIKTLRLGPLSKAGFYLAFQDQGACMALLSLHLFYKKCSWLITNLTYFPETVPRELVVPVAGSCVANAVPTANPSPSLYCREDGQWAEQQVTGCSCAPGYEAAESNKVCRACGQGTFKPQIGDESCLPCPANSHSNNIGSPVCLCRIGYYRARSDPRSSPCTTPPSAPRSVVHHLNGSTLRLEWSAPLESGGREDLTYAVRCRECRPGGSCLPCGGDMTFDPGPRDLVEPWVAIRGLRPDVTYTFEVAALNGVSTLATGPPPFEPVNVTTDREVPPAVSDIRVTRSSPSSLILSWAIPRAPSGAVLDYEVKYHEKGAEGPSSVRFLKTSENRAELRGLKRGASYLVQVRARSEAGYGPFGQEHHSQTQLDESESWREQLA

EphB4 Fc [2] = biological target: T1, EphB4 Fc; assay: ELISA
mouse EphB4 AP = biological target: T2, mouse EphB4 AP (mouse, UniProt P54761 16-539); assay: ELISA
T2 chain: T1 chain

IC50 (EphB4 Fc [1]): 24 nM
Kd (EphB4 Fc [2]): 2.9 nM
B1: PEGylated TNYL-RAW (PEG-TNYL-RAW) (peptide)
chain: {PEG 40 kDa branched (NHS-glutaryl)}-TNYLFSPNGPIARAW

Kd (EphB4 Fc [2]): 2.7 nM
Kd (mouse EphB4 AP): 11 nM
B2: biotinylated TNYL-RAW peptide (peptide)
peptide: TNYLFSPNGPIARAW[Ahx]K(Biotin)

IC50 (EphB4 Fc [1]): 6.5 nM
Kd (mouse EphB4 AP): 4.7 nM
B3: TNYL-RAW fused with human Fc (TNYL-RAW-Fc) (Fc fusion)
chain: TNYLFSPNGPIARAWGSGSK

IC50 (EphB4 Fc [1]): 13 nM
B4: TNYL-RAW peptide (peptide)
chain: TNYLFSPNGPIARAW

— PMC3237458 (2011)
